Results from the Human Domainome abundance scans (Beltran et al. 2025).
± gives the uncertainty stated by the source.

B1: Far upstream element-binding protein 1, residues 184 to 257; numbered along this chain, Q96AE4 (parent)
chain: GNAVQEIMIPASKAGLVIGKGGETIKQLQERAGVKMVMIQDGPQNTGADKPLRITGDPYKVQQAKEMVLELIRD

Variants of: B1
Experiment: abundance fitness (aPCA) (normalised: wild type 0, dead -1); higher = more abundant; growth selection in yeast, the domain comes from the species named
Details: Homo sapiens

Variant	abundance fitness
GNAVQEIMIPASKAGLVIGKGGETIKQLQTRAGVKMVMIQDGPQNTGADKPLRITGDPYKVQQAKEMVLELIRD	-0.071 ± 0.038
GNAVQEIMIPASKAGLVIGKGGETIKQLQERAGVKMVMIQDGPQNTGADKPLRITGDPYKVQQAPEMVLELIRD	-0.709 ± 0.043
GNAVQEIMIPASKAGLVIGKGGETIKQLQERAGVKMVMIQDGPQNTGADKPLRITGDPYKVQQAKEMVLEVIRD	-0.01 ± 0.03
GNAVQEIMIPASKAGLVIGKGGETIKQLQERAGVKMVMIQDGPQNTGADKPLRITGDPPKVQQAKEMVLELIRD	0.015 ± 0.031
GNAVQEIMYPASKAGLVIGKGGETIKQLQERAGVKMVMIQDGPQNTGADKPLRITGDPYKVQQAKEMVLELIRD	-0.891 ± 0.077
FNAVQEIMIPASKAGLVIGKGGETIKQLQERAGVKMVMIQDGPQNTGADKPLRITGDPYKVQQAKEMVLELIRD	-0.027 ± 0.074
GNAVQEIMIPASKAGLVIGKGGETIKQLQEAAGVKMVMIQDGPQNTGADKPLRITGDPYKVQQAKEMVLELIRD	-0.036 ± 0.032
GNAVQEIMIPESKAGLVIGKGGETIKQLQERAGVKMVMIQDGPQNTGADKPLRITGDPYKVQQAKEMVLELIRD	-0.098 ± 0.035
GNAVQEIMIPASKAGLVIGKGGETIKQLQERAGVKMVMIQDGPQNTGADKPLRITGDPYKVQQAKEMVLELVRD	0.011 ± 0.03
GNAVQEIMIPASKAGLVIGKGGETIKQLQERAGVKMVMIQDGPQNTGADKPLRITGDPYKVQQAKEMVLELRRD	-0.498 ± 0.029
GNAVQEIMIPASKAGLVIGKGGETIKQLQERAGVKMVMIQDGPQNTGADKPLRITGDPYVVQQAKEMVLELIRD	-0.581 ± 0.033
GNAVQEIMIPASKAGLVIGKGGETIKQLQERAGVKMVMIQDGPQNTGADKPLRITGDPYTVQQAKEMVLELIRD	-0.278 ± 0.036
GNAVQEIMIFASKAGLVIGKGGETIKQLQERAGVKMVMIQDGPQNTGADKPLRITGDPYKVQQAKEMVLELIRD	-1.13 ± 0.13
GNAVQEIMIPASKAGLVIGKGGETIKQLQERAGVKMVMQQDGPQNTGADKPLRITGDPYKVQQAKEMVLELIRD	-0.032 ± 0.04
GNAVQEIMIPASKAGLVIGKGGETIKQLQERGGVKMVMIQDGPQNTGADKPLRITGDPYKVQQAKEMVLELIRD	-0.075 ± 0.03
GNAVQEIMIPASKAGLVIGKGGETIKQLQERAGVKMVMIQDGPQNTGADKPLRITGDPYKTQQAKEMVLELIRD	-0.154 ± 0.034
GNAVQEIMIPASKAGLVIGKGGETIKQLQERAGVKMVMIQDGPQNTGADKPLRITGDPYKVQYAKEMVLELIRD	-0.027 ± 0.05
GNAVQEIMIPASKAGLVIGKGGETIKQLQERAGVKMVMIQDGPQMTGADKPLRITGDPYKVQQAKEMVLELIRD	-0.055 ± 0.039
GNAVQEIMIPASKAGLVIGKGGETIKQLQERAGPKMVMIQDGPQNTGADKPLRITGDPYKVQQAKEMVLELIRD	-0.918 ± 0.065

Variant	abundance fitness
GNAVQEIMIPASKAGLVIGKGGETIKQLQERAGVKMVMIQDGPQNTGADKPLQITGDPYKVQQAKEMVLELIRD	-0.009 ± 0.038
GNAVQEIMIPASKAGLVIGKGGETIKQLQERAGVKMVMIQDEPQNTGADKPLRITGDPYKVQQAKEMVLELIRD	0.007 ± 0.033
GNAVQEIMIPASKAGLVIGKGGETIKQLQERAGVKMVMIQDGNQNTGADKPLRITGDPYKVQQAKEMVLELIRD	-0.123 ± 0.063
GNAVQEIMIPASEAGLVIGKGGETIKQLQERAGVKMVMIQDGPQNTGADKPLRITGDPYKVQQAKEMVLELIRD	-0.139 ± 0.035
GNAVQEIMIPASKAGLVIGKGGETIKQLSERAGVKMVMIQDGPQNTGADKPLRITGDPYKVQQAKEMVLELIRD	-0.029 ± 0.031
GNAVQEIMIPASKAGLVIGKGGETIKQLQERAGVKMVMIQDGPQNTGADKPLRITGDPYKVQQAKEMVLELIRS	-0.111 ± 0.037
GNAVQEIMIPASKAGLVIGKGGETIKQLQERAGVKMVMIQDGPQNTGADKPLRITGDPYKVQQAKLMVLELIRD	-0.092 ± 0.032
GNAVQEIMIPADKAGLVIGKGGETIKQLQERAGVKMVMIQDGPQNTGADKPLRITGDPYKVQQAKEMVLELIRD	0.004 ± 0.043
GNAVQEIMIPASKAGLVIGKGGETIKQLQERAGVKMVPIQDGPQNTGADKPLRITGDPYKVQQAKEMVLELIRD	-0.287 ± 0.04
GNAVQEIMIPASKAGLVIGKGGETIKQLQERAGVKMVMIQDGPWNTGADKPLRITGDPYKVQQAKEMVLELIRD	-0.088 ± 0.035
GNAVQEIMIPASKAGLIIGKGGETIKQLQERAGVKMVMIQDGPQNTGADKPLRITGDPYKVQQAKEMVLELIRD	-0.06 ± 0.048
GNAVQEIMIPASKAGLVIGKGGETIKQLQERAGVYMVMIQDGPQNTGADKPLRITGDPYKVQQAKEMVLELIRD	-0.248 ± 0.055
GNAVQEIMIPASKAGLVIGKGGETIKQLQERAGVSMVMIQDGPQNTGADKPLRITGDPYKVQQAKEMVLELIRD	-0.116 ± 0.032
GNAVQEIMIPASKAGLVKGKGGETIKQLQERAGVKMVMIQDGPQNTGADKPLRITGDPYKVQQAKEMVLELIRD	-0.117 ± 0.039
GNAVQEIMIPASKAGLVIGKGGETIKQLQERAGVKMVMIQDGPQNTGADKPLRITGDPYKVQQAKEEVLELIRD	-0.082 ± 0.035
GNAVQEDMIPASKAGLVIGKGGETIKQLQERAGVKMVMIQDGPQNTGADKPLRITGDPYKVQQAKEMVLELIRD	-1.02 ± 0.076
GNAVQENMIPASKAGLVIGKGGETIKQLQERAGVKMVMIQDGPQNTGADKPLRITGDPYKVQQAKEMVLELIRD	-1.09 ± 0.1
GNAVQEIMIPASKAGLVIGKGGETIKQLQERAGVKMVMIQDGPQNTGADKPLRICGDPYKVQQAKEMVLELIRD	-0.065 ± 0.045
